Where “and” joins values, the source holds several entries; their conditions need not be identical. Equal values may be shown once.
T1: Heat shock factor 1 (Hsf1) (human), Q00613
T1 chain: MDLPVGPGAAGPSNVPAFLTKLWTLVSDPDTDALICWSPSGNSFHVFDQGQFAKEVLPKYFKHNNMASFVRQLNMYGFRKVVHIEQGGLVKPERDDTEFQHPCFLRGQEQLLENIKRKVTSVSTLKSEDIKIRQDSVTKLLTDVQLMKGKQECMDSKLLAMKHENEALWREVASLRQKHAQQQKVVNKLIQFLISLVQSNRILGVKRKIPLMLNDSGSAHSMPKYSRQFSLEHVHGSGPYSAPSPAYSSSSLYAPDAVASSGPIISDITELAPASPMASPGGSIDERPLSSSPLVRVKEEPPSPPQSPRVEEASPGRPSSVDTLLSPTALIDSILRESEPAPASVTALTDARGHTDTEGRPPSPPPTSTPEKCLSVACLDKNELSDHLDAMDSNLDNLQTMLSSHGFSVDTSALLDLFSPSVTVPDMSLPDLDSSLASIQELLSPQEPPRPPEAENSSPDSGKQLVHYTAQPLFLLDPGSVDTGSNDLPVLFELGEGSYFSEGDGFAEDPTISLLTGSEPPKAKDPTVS


Tests used:
Assay in all cases: SEC-MALS
[1] = target: Hsf1 CS mutant (C35S/C103S/C153S/C373S/C378S) (human) (UniProt Q00613)
[2] = target: T1, Heat shock factor 1 (Hsf1) (human), …; settings: remark: other sources report otherwise
[3] = target: T1, Heat shock factor 1 (Hsf1) (human), …; settings: remark: other sources report otherwise

| stoichiometry N [1] | stoichiometry N [2] | stoichiometry N [3] | Molecule |
| --- | --- | --- | --- |
| 5 |  |  | Hsf1 CS mutant (C35S/C103S/C153S/C373S/C378S) (from UniProt Q00613 1-529) (natural protein) |
|  | 7 | 9 and < 16 | Heat shock factor 1 (Hsf1), Q00613 1-529 (natural protein) MDLPVGPGAAGPSNVPAFLTKLWTLVSDPDTDALICWSPSGNSFHVFDQGQFAKEVLPKYFKHNNMASFVRQLNMYGFRKVVHIEQGGLVKPERDDTEFQHPCFLRGQEQLLENIKRKVTSVSTLKSEDIKIRQDSVTKLLTDVQLMKGKQECMDSKLLAMKHENEALWREVASLRQKHAQQQKVVNKLIQFLISLVQSNRILGVKRKIPLMLNDSGSAHSMPKYSRQFSLEHVHGSGPYSAPSPAYSSSSLYAPDAVASSGPIISDITELAPASPMASPGGSIDERPLSSSPLVRVKEEPPSPPQSPRVEEASPGRPSSVDTLLSPTALIDSILRESEPAPASVTALTDARGHTDTEGRPPSPPPTSTPEKCLSVACLDKNELSDHLDAMDSNLDNLQTMLSSHGFSVDTSALLDLFSPSVTVPDMSLPDLDSSLASIQELLSPQEPPRPPEAENSSPDSGKQLVHYTAQPLFLLDPGSVDTGSNDLPVLFELGEGSYFSEGDGFAEDPTISLLTGSEPPKAKDPTVS |

— publication doi:10.1101/2021.12.02.471034
